# Target: the molecule itself
# Assay: crystal structure
protein,measurement,value
"CusB periplasmic membrane fusion protein (natural protein, E. coli, UniProt P77239 29-407, looked up) EPPAEKTSTAERKILFWYDPMYPNTRFDKPGKSPFMDMDLVPKYADEESSASGVRIDPTQTQNLGVKTATVTRGPLTFAQSFPANVSYNEYQYAIVQARAAGFIDKVYPLTVGDKVQKGTPLLDLTIPDWVEAQSEYLLLRETGGTATQTEGILERLRLAGMPEADIRRLIATQKIQTRFTLKAPIDGVITAFDLRAGMNIAKDNVVAKIQGMDPVWVTAAIPESIAWLVKDASQFTLTVPARPDKTLTIRKWTLLPGVDAATRTLQLRLEVDNADEALKPGMNAWLQLNTASEPMLLIPSQALIDTGSEQRVITVDADGRFVPKRVAVFQASQGVTALRSGLAEGEKVVSSGLFLIDSEANISGALERMRSESATHAH",stoichiometry N,6

# — paper PMC3423576 (Journal of molecular biology, 2012)
